# Measurements reported in patent US20260297194 (published 2026).
# T1: human GPRC5D (human, UniProt Q9NZD1)
# T1 chain: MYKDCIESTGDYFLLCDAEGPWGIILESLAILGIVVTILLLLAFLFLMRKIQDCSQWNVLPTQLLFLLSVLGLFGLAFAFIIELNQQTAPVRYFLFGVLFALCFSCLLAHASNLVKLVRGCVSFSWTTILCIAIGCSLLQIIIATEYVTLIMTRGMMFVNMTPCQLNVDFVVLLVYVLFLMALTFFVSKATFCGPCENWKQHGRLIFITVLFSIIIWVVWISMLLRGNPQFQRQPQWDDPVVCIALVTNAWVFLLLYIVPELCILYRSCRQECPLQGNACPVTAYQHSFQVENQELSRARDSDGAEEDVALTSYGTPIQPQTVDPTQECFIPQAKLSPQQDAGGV
# T2: human CD3 (human, UniProt P07766)
# T2 chain: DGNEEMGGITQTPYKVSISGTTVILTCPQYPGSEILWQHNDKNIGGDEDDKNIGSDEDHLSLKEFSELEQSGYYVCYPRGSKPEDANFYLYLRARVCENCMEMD
# T3: cynomolgus CD3 (cynomolgus monkey, UniProt Q95LI5)
# T3 chain: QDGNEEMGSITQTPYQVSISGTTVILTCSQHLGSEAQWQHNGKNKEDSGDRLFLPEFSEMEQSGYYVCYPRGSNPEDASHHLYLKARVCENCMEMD
# B1: Bispecific antibody 1 (GPRC5D arm) (antibody, V domains shown)
# VH: QVQLVQSGAEVKKPGASVKVSCKASGYTFTSYIIHWVRQAPGQGLEWIGYINPYNDGTKYNEKFKGRVTMTSDTSTSTVYMELSSLRSEDTAVYYCARGGIRAFMNYWGQGTLVTVSS
# VL: DIQMTQSPSSLSASVGDRVTITCKASQDVGTAVAWYQQKPGKAPKLLIYWASTRHTGVPSRFSGSGSGTDFTLTISSLQPEDFATYYCQHYISWTFGQGTKVEIK
# B2: Bispecific antibody 2 (GPRC5D arm) (antibody, V domains shown)
# VH: B1 VH
# VL: B1 VL
# B3: 18CH16H2L1 (antibody, V domains shown)
# VH: B1 VH
# VL: B1 VL
# B4: Bispecific antibody 1 (CD3 arm) (antibody, V domains shown)
# VH: EVKLVESGGGLVQPGGSLKLSCAASGFTFNTYAMNWVRQAPGKGLEWVARIRSKYNNYATYYADSVKDRFTISRDDAKNTLYLQMNNLRTEDTAVYYCVRHGNFGNSYVSWFAYWGQGTLVTVSS
# VL: QAVVTQEPSLTVSPGGTVTLTCRSSTGAVTTSNYANWVQQKPGQAPRGLIGGTNKRAPGTPARFSGSLLGGKAALTLSGAQPEDEAEYYCALWYSNLWVFGGGTKLTVL
# modifications: Acro CDD-H52W1 for SPR; native CD3 on Jurkat cells for FACS
# B5: Bispecific antibody 2 (CD3 arm) (antibody, V domains shown)
# VH: B4 VH
# VL: B4 VL
# modifications: Acro CDD-C52W4
# B6: Bispecific antibody 2 (CD3 arm) (antibody, V domains shown)
# VH: B4 VH
# VL: B4 VL
# modifications: Acro CDD-H52W1 for SPR; native CD3 on Jurkat cells for FACS
# B7: Bispecific antibody 1 (CD3 arm) (antibody, V domains shown)
# VH: B4 VH
# VL: B4 VL
# modifications: Acro CDD-C52W4
# B8: 18CH-16 chimeric (antibody, V domains shown)
# VH: EVQLQQSGPELVKPGASVKMSCKASGYTFTSYIIHWVKQKPGQGLEWIGYINPYNDGTKYNEKFKGKATLTSDRSSSTAYMEVSSLTSEDSAVYYCARGGIRAFMNYWGQGTSVTVSS
# VL: DIVMTQSHKFMSTSVGDRVSITCKASQDVGTAVAWYQQKPGQSPKLLIYWASTRHTGVPDRFTGSGSGTDFTLSISNVQSEDLADYFCQHYISWTFGGGTNLEIK
# Legend:
# human GPRC5D [1] = molecular target: T1, human GPRC5D; test: FACS, RPMI8226 cells
# human GPRC5D [2] = molecular target: T1, human GPRC5D; test: FACS, NCI-H929 cells
# human GPRC5D [3] = molecular target: T1, human GPRC5D; test: FACS, NCI-H929 cells
# human GPRC5D [4] = molecular target: T1, human GPRC5D; test: FACS, human GPRC5D-CHOK1 cells
# human CD3 [5] = molecular target: T2, human CD3; test: SPR
# human CD3 [6] = molecular target: T2, human CD3; test: FACS, Jurkat cells
# cynomolgus CD3 = molecular target: T3, cynomolgus CD3; test: SPR
# human GPRC5A = human GPRC5A (human, UniProt Q8NFJ5); test: FACS, human GPRC5A-CHOK1 cells
# human GPRC5D [7] = molecular target: T1, human GPRC5D; test: FACS, human GPRC5D-CHOK1 cells
# Sequence of human GPRC5A (Q8NFJ5 whole entry): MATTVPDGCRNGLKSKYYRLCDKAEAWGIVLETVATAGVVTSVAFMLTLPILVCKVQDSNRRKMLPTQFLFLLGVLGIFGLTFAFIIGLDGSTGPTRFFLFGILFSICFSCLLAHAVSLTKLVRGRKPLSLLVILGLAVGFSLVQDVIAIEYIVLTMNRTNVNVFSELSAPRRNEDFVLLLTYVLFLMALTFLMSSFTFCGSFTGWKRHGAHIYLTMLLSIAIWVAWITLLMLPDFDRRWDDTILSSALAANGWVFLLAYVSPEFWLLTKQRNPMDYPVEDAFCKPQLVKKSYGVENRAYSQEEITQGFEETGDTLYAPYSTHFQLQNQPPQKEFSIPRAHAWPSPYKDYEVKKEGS
binder,measurement,setting,value
B1,EC50,human GPRC5D [1],7.48 nM
same,EC50,human GPRC5D [2],1.07 nM
B2,EC50,human GPRC5D [1],22.9 nM
same,EC50,human GPRC5D [2],5.19 nM
B3,EC50,human GPRC5D [3],0.3 nM
same,EC50,human GPRC5D [4],0.51 nM
B4,Kd,human CD3 [5],20 nM
same,EC50,human CD3 [6],22.1 nM
B5,Kd,cynomolgus CD3,18.9 nM
B6,Kd,human CD3 [5],18.1 nM
same,EC50,human CD3 [6],12.9 nM
B7,Kd,cynomolgus CD3,16.8 nM
B8,binding result,human GPRC5A,no binding
same,EC50,human GPRC5D [7],3.89 nM
